Results reported in the FLAb antibody collection (doi:10.1101/2023.12.08.570889).
Substitutions are numbered along the chain they refer to.

B1: unnamed (protein)
chain 1: EVQLVQSGAEVKKPGESLRISCKGSGYSFSTYWISWVRQMPGKGLEWMGKIYPGDSYTNYSPSFQGQVTISADKSISTAYLQWSSLKASDTAMYYCARGWGVFDYWGQGTLVTVSS
chain 2: SYELTQPPSVSVSPGQTASITCSGDNIGDQYAHWYQQKPGQSPVLVIYQDKNRPSGIPERFSGSNSGNTATLTISGTQAMDEADYYCATYTGFGSLAVFGGGTKLTVL
B2: unnamed (protein)
chain 1: B1 chain 1 with A97T, W100V, V102L
chain 2: B1 chain 2
B3: unnamed (protein)
chain 1: B1 chain 1 with A97T, W100V, V102I
chain 2: B1 chain 2
B4: unnamed (protein)
chain 1: B1 chain 1 with W100I
chain 2: B1 chain 2
B5: unnamed (protein)
chain 1: B1 chain 1 with A97T, W100Y
chain 2: B1 chain 2
B6: unnamed (protein)
chain 1: B1 chain 1 with A97S, W100Y, V102I
chain 2: B1 chain 2
B7: unnamed (protein)
chain 1: B1 chain 1 with A97T, W100T, V102L
chain 2: B1 chain 2
B8: unnamed (protein)
chain 1: B1 chain 1 with W100H
chain 2: B1 chain 2
B9: unnamed (protein)
chain 1: B1 chain 1 with W100V, V102L
chain 2: B1 chain 2
B10: unnamed (protein)
chain 1: B1 chain 1 with V102I
chain 2: B1 chain 2
B11: unnamed (protein)
chain 1: B1 chain 1 with V102L
chain 2: B1 chain 2
B12: unnamed (protein)
chain 1: B1 chain 1 with W100I, V102I
chain 2: B1 chain 2
B13: unnamed (protein)
chain 1: B1 chain 1 with W100I, V102L
chain 2: B1 chain 2
B14: unnamed (protein)
chain 1: B1 chain 1 with A97S, W100Y
chain 2: B1 chain 2
B15: unnamed (protein)
chain 1: B1 chain 1 with W100T, V102L
chain 2: B1 chain 2
B16: unnamed (protein)
chain 1: B1 chain 1 with S28T, T31S, A97T, W100Y, V102I
chain 2: B1 chain 2
B17: unnamed (protein)
chain 1: B1 chain 1 with S28T, T31S, A97T, W100Y, V102L
chain 2: B1 chain 2
B18: unnamed (protein)
chain 1: B1 chain 1 with A97T, W100T, V102I
chain 2: B1 chain 2
B19: unnamed (protein)
chain 1: B1 chain 1 with W100V, V102I
chain 2: B1 chain 2
B20: unnamed (protein)
chain 1: B1 chain 1 with S28T, T31S, W100Y, V102L
chain 2: B1 chain 2

target: TNFRSF9, Q07011; experiment: Kd (SPR)

Row | Kd [nM] | Binder
1 | 122 | B1
2 | 141 | B2
3 | 92.3 | B3
4 | 33.4 | B4
5 | 96.2 | B5
6 | 39.7 | B6
7 | 142 | B7
8 | 315 | B8
9 | 153 | B9
10 | 45 | B10
11 | 60.3 | B11
12 | 128 | B12
13 | 175 | B13
14 | 130 | B14
15 | 95.6 | B15
16 | 95.4 | B16
17 | 109 | B17
18 | 92 | B18
19 | 158 | B19
20 | 86.1 | B20
